# Laboratory results: paper PMC11189929, “Non-consecutive enzyme interactions within TCA cycle supramolecular assembly regulate carbon-nitrogen metabolism” (Nature Communications, 2024)
# B1: O. iheyensis MDH (OceMDH) (Oceanobacillus iheyensis HTE831) (protein)
# chain: MGLKRKKISVIGSGFTGATTALMVAQKELGDVVLVDIPDMEDPTKGKALDMAEAAPVQGFDAKITGTSNYADTEGSDLVIITAGIARKPGMSRDDLVNTNANIMKSVTKEIVHYSPNTTIVVLTNPVDAMTYTVFKESGLPKERVIGQSGILDTARFRTFVAEELNLSVKDVTGFVLGGHGDDMVPLIRYSYAGGIPLEKLIPQERLDAIVQRTRTGGGEIVNLLGNGSAYYAPAASLTVMAEAILKDQRRVLPTIAYLEGEYGYQDIYLGVPTILGGEGIEEIIELDLTKEEKAQLDKSADSVKNVLNVLQ
# notes: 34,592 Da printed
# B2: Geobacillus kaustophilus MDH (Geobacillus kaustophilus HTA426) (protein)
# chain: MAMKRKKISVIGAGFTGATTAFLLAQKELGDVVLVDIPQLENPTKGKALDMLEASPVLGFDANIIGTSDYADTADSDIVVITAGIARKPGMSRDDLVTTNQKIMKQVTKEVVKYSPNCYIIVLTNPVDAMTYTVFQESGFPKNRVIGQSGVLDTARFRTFVAEELNISVKDVTGFVLGGHGDDMVPLVRYSYAGGIPLEKLIPKDRLDAIVERTRKGGGEIVNLLGNGSAYYAPAASLVEMVEAILKDQRRILPAIAYLEGEYGYEGIYLGVPTILGGNGIEKVIELELTEEEKAALAKSVESVKNVMRMLE
# notes: C-terminal His6 tag, pET24a, expressed in E. coli BL21(DE3)
# B3: B. subtilis MDH (BsMDH) (Bacillus subtilis subsp. subtilis str. 168) (protein)
# chain: GNTRKKVSVIGAGFTGATTAFLIAQKELADVVLVDIPQLENPTKGKALDMLEASPVQGFDAKITGTSNYEDTAGSDIVVITAGIARKPGMSRDDLVSTNEKIMRSVTQEIVKYSPDSIIVVLTNPVDAMTYAVYKESGFPKERVIGQSGVLDTARFRTFVAEELNLSVKDVTGFVLGGHGDDMVPLVRYSYAGGIPLETLIPKERIDAIVERTRKGGGEIVNLLGNGSAYYAPAASLTEMVEAILKDQRRVLPTIAYLEGEYGYEGIYLGVPTIVGGNGLEQIIELELTDYERAQLNKSVESVKNVMKVLS
# notes: full-length, C-terminal His6 tag, pET24a, expressed in E. coli BL21(DE3), Ni-NTA and SEC; 33,643 Da printed
# B4: malate dehydrogenase (MDH) from Bacillus subtilis (enzyme)
# chain: MGNTRKKVSVIGAGFTGATTAFLIAQKELADVVLVDIPQLENPTKGKALDMLEASPVQGFDAKITGTSNYEDTAGSDIVVITAGIARKPGMSRDDLVSTNEKIMRSVTQEIVKYSPDSIIVVLTNPVDAMTYAVYKESGFPKERVIGQSGVLDTARFRTFVAEELNLSVKDVTGFVLGGHGDDMVPLVRYSYAGGIPLETLIPKERIDAIVERTRKGGGEIVNLLGNGSAYYAPAASLTEMVEAILKDQRRVLPTIAYLEGEYGYEGIYLGVPTIVGGNGLEQIIELELTDYERAQLNKSVESVKNVMKVLS
# Columns and labels:
# [1] = target: T1, Escherichia coli MDH (Escherichia coli, UniProt P61889); design: Purified MDH activity, NADH oxidation at 340 nm with varied oxaloacetate, 150 uM NADH, pH 7.4, Michaelis-Menten fit; conditions: substrate; read-out: KM (oxaloacetate)
# T1 construct: C-terminal His6 tag, pET24a, expressed in E. coli BL21(DE3)
# T1 sequence (P61889 1-312): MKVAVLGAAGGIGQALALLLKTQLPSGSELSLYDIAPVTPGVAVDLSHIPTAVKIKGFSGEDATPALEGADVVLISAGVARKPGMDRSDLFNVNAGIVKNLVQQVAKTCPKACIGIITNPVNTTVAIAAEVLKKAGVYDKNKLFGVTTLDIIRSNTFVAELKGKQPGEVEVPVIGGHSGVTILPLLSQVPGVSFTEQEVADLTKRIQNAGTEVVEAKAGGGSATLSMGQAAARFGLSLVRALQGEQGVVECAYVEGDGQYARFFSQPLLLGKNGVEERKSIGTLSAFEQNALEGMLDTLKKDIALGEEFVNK
# Experimental: (§1) Determination of MDH activity was based on spectroscopic assays (30). […] Specifically, a range of oxaloacetate (Sigma) concentrations (7.5–250 µM), 150 µM NADH (Sigma), 5 nM MDH in 0.1 M sodium phosphate buffer, pH 7.4 were used. […] The catalytic parameters, kcat and KM, were calculated by fitting the data using non-linear regression to Michaelis-Menten equation, v0 = (kcat·[E]·[S])/(KM + [S]), where v0 is initial velocity, [E] is MDH concentration, [S] is […]. Original and mutated mdh genes used in the study are summarized in Supplementary Data 1. B. subtilis mdh gene was amplified by PCR from the chromosomal DNA of B. subtilis PY79. Nucleotide sequences of orthologous mdhs were collected from the KEGG database (https://www.genome.jp/), synthesized by GENEWIZ^© and cloned into i) pHT254 B. subtilis expression vector (MoBiTec Molecular Biotechnology), and ii) pET24a E. coli expression vector (Merck-Novagen) using Gibson assembly. […] All MDH proteins were tagged with Hisx6t at the C-terminal end. Mdh genes cloned into pHT254 plasmid were transformed into B. subtilis PY79. Mdh genes cloned into pET24a plasmid were transformed into E. coli Bl21(DE3) strain.
# [2] = substrate: O=C(O)CC(=O)C(=O)O; assay: purified protein; type: biochemical, Oceanobacillus iheyensis; conditions: 150 uM NADH, oxaloacetate 7.5-250 uM, 5 nM MDH, 0.1 M sodium phosphate pH 7.4
# [3] = substrate: O=C(O)CC(=O)C(=O)O; assay: purified protein, by the assay type; design: Purified MDH activity, NADH oxidation at 340 nm with varied oxaloacetate, 150 uM NADH, pH 7.4, Michaelis-Menten fit; conditions: pH 7.4
# Experimental: as §1
# [4] = substrate: O=C(O)CC(=O)C(=O)O; assay: purified protein; type: biochemical, Bacillus subtilis; conditions: 150 uM NADH, oxaloacetate 7.5-250 uM, 5 nM MDH, 0.1 M sodium phosphate pH 7.4
# [5] = target: T2, isocitrate dehydrogenase (ICD) from Bacillus subtilis (B. subtilis) (UniProt P39126)
# T2 sequence: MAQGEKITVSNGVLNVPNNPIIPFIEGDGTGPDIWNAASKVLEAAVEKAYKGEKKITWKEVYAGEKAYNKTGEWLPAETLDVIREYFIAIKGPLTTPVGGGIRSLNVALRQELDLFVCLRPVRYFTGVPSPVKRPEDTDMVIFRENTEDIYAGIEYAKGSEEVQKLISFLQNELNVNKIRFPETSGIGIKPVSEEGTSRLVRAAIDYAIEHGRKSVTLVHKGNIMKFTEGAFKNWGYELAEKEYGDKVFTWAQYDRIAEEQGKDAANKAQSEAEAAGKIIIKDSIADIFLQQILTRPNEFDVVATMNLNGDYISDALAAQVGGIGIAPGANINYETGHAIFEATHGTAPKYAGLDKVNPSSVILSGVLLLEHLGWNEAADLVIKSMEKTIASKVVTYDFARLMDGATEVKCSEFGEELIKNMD
# [6] = target: T2, isocitrate dehydrogenase (ICD) from Bacillus subtilis (B. subtilis); remark: listed apart in the source
molecule,measurement,setting,value
O=C(O)CC(=O)C(=O)O [oxaloacetate],Km,[1],39 µM
B1,Km,[2],23 µM
same,kcat,[2],249 s⁻¹
B2,Km,[3],54 µM
same,kcat,[3],59 s⁻¹
same,kcat/Km,[3],1.1e+06 M⁻¹ s⁻¹
B3,Km,[4],12 µM
same,kcat,[4],120 s⁻¹
B4,"partitioning of 2-oxoglutarate towards the droplet phase against the continuous phase, droplets with 1:500 molar excess of MDH, after 40 min of incubation",[5],2 fold
same,"rate of 2-oxoglutarate formation by ICD within BSA/PEG LLPS droplets, MDH/ICD molar ratios 1:1, 10:1, 50:1, 100:1, 250:1 and 500:1 (~10% enhancement at 10:1; plateau at and above 250:1)",[6],180%
